The source of these data is patent US20250382602.

Numbering of substitutions follows the chain as printed.

Data set [1] has as its target T1, Dda 1993 K177Q K177Q (Enterobacteria phage T4) (UniProt P32270).
T1 sequence: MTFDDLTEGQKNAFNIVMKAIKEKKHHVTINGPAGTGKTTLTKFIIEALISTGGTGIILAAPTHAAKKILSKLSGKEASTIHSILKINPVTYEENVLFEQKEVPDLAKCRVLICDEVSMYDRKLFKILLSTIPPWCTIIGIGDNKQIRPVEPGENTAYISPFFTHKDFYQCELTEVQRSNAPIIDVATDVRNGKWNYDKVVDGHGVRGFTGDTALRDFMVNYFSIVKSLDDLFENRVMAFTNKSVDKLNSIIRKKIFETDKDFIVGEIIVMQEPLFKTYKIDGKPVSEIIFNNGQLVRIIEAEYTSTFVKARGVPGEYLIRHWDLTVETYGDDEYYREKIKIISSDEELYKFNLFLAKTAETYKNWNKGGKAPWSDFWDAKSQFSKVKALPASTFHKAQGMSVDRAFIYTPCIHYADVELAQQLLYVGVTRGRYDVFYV
The following applies: nanopore translocation; background mutations not given.

Data set [2] addresses T2, Dda 1993 K177W K177W (Enterobacteria phage T4) (UniProt P32270).
T2 sequence: T1 sequence with Q177W
The following applies: nanopore translocation; background mutations not given.

Data set [3] has as its target T3, Dda 1993 K177G K177G (Enterobacteria phage T4) (UniProt P32270).
T3 sequence: T1 sequence with Q177G
The following applies: nanopore translocation; background mutations not given.

For data set [4], the target named is T4, Dda 1993 K177D K177D (Enterobacteria phage T4) (UniProt P32270).
T4 sequence: T1 sequence with Q177D
The conditions noted are these: nanopore translocation; control is an unspecified Dda variant, background mutations not given.

For data set [5], the target named is T5, Dda 1993 K177I K177I (Enterobacteria phage T4) (UniProt P32270).
T5 sequence: T1 sequence with Q177I
The conditions noted are these: nanopore translocation; background mutations not given.

Data set [6] concerns the target T6, Dda 1993 T55K T55K (Enterobacteria phage T4) (UniProt P32270).
T6 sequence: T1 sequence with T55K, Q177K
The conditions noted are these: nanopore translocation, PromethION; background mutations not given.

For the substance “barcoded 3.6 kb DNA analyte ligated to sequencing Y adaptor”, the activity (bps speed delta vs control) in data set [1] was 59.7; in data set [2], -23.4; in data set [3], -27.6; in data set [4], 3.07; in data set [5], 43; in data set [6] it was 8.29.
